Measurements published in US11278600B2, “Human alpha-galactosidase variants” (Codexis, Inc., priority 2014, dated 2022).

How the values were obtained:
Format in all cases: biochemical
[1] = HTP-analysis of yeast culture supernatants, no challenge (MUGal hydrolysis); details: activity of the variant/activity of WT GLA (SEQ ID NO: 5), yeast supernatant
Protocol: (§1) Yeast (INVSc1) cells transformed with vectors expressing GLA and GLA variants using the lithium acetate method were selected on SD-Ura agar plates. After 72 h incubation at 30° C. colonies were placed into the wells of Axygen® 1.1 ml 96-well deep well plates filled with 200 μl/well SD-Ura broth (2 g/L SD-Ura, 6.8 g/L yeast nitrogen base without amino acids [Sigma Aldrich]), 3.06 g/L sodium dihydrogen phosphate, 0.804 g/L disodium hydrogen phosphate, pH 6.0 supplemented with 6% glucose. The cells were allowed to grow for 20-24 hours in a Kuhner shaker (250 rpm, 30° C., and 85% relative humidity). Overnight culture samples (20 μL) were transferred into Corning Costar® 96-well deep plates filled with 380 µL of SD-ura broth supplemented with 2% glucose. The plates were incubated for 66-84 h in a Kuhner shaker (250 rpm, 30° C., and 85% relative humidity). The cells were then pelleted (4000 rpm×20 min), and the supernatants isolated and stored at 4° C. prior to analysis.
GLA variant activity was determined by measuring the hydrolysis of 4-methylumbelliferyl α-D-galactopyranoside (MUGal). For this assay, 5-50 μL, of yeast culture supernatant produced as described above, was mixed with 0-45 μL, of McIlvaine Buffer (McIlvaine, J. Biol. Chem., 49:183-186 [1921]), pH 4.8 and 50 μL of 2 mM MUGal in 50 mM citrate, 200 mM KCl, pH 4.6 in a 96-well, black, opaque bottom plate. The reactions were mixed briefly and incubated at 37° C. for 30-180 minutes, prior to quenching with 100 μL, of 1 M sodium carbonate. Hydrolysis was analyzed using a SpectraMax® M2 microplate reader monitoring fluorescence (Ex. 355 nm, Em. 448 nm).

[2] = HTP-analysis of supernatants pretreated with acid (MUGal hydrolysis); details: challenge at pH 4.3; activity of the variant/activity of WT GLA (SEQ ID NO: 5); yeast supernatant
Protocol: as §1
GLA variants were challenged with acidic buffer to simulate the extreme pHs that the variants may encounter in lysosomes. First, 50 μL of yeast culture supernatant and 50 uL of McIlvaine buffer (pH 3.3-4.3) were added to the wells of a 96-well round bottom plate. The plates were sealed with a PlateLoc Thermal Microplate Sealer (Agilent) and incubated at 37° C. for 1-3 h. For the assay, 10-50 uL of acid-pH-challenged sample was mixed with 0-40 μL, of McIlvaine buffer pH 4.8, 25 μL, of 1 M citrate buffer pH 4.3 and 25 μL, of 4 mM MUGal in McIlvaine buffer pH 4.8. The reactions were mixed briefly and incubated at 37° C. for 30-180 minutes, prior to quenching with 100 μL, of 1 M sodium carbonate. Hydrolysis was analyzed using a SpectraMax® M2 microplate reader monitoring fluorescence (Ex. 355 nm, Em. 448 nm).

[3] = HTP-analysis of supernatants pretreated with base (MUGal hydrolysis); details: challenge at pH 7.0; activity of the variant/activity of WT GLA (SEQ ID NO: 5); yeast supernatant
Protocol: as §1
GLA variants were challenged with basic (neutral) buffer to simulate the pHs that the variants encounter in the blood following their administration to a patient. First, 50 μL of yeast culture supernatant and 50 uL of McIlvaine buffer (pH 7.0-8.2) or 200 mM sodium bicarbonate (pH 9.1-9.7) were added to the wells of a 96-well round bottom plate. The plates were sealed and incubated at 37° C. for 1-18 h. For the assay, 10-50 μL of basic-pH-challenged sample was mixed with 0-40 μL, of McIlvaine buffer pH 4.8, 25 μL, of 1 M citrate buffer pH 4.3 and 25 μL, of 4 mM MUGal in McIlvaine buffer pH 4.8. The reactions were mixed briefly and incubated at 37° C. for 30-180 minutes, prior to quenching with 100 μL, of 1 M sodium carbonate. Hydrolysis was analyzed using a SpectraMax® M2 microplate reader monitoring fluorescence (Ex. 355 nm, Em. 448 nm).

Molecule | Relative Activity of GLA Variants After No Challenge (NC) [1] | Relative Activity of GLA Variants After Challenge at pH 4.3 [2] | Relative Activity of GLA Variants After Challenge at pH 7.0 [3]
16 (protein, Synthetic Polypeptide sequence of Variant No. 16 of mature Human GLA) LDNGLARTPTMGWLHWERFMCNLDCQEEPDSCISEKLFMEMAELMVSDGWKDAGYEYLCIDDCWMAPQRDSEGRLQADPQRFPHGIRQLANYVHSKGLKLGIYADVGNKTCAGFPGSFGYYDIDAQTFADWGVDLLKFDGCYCDSLENLADGYKHMSLALNRTGRSIVYSCEWPLYMWPFQKPNYTEIRQYCNHWRNFADIDDSWKSIKSILDWTSFNQERIVDVAGPGGWNDPDMLVIGNFGLSWNQQVTQMALWAIMAAPLFMSNDLRHISPQAKALLQDKDVIAINQDPLGKQGYQLRQGDNFEVWERPLSGLAWAVAMINRQEIGGPRSYTIAVASLGKGVACNPACFITQLLPVKRKLGFYEWTSRLKSHVNPTGTVLLQLENTMQMSLKDLLL | + (+ = 0.5 to 1.5 relative activity over WT GLA (SEQ ID NO: 5)) | ++ (++ = >1.5 to 2.5 relative activity over WT GLA (SEQ ID NO: 5)) | + (+ = 0.5 to 1.5 relative activity over WT GLA (SEQ ID NO: 5))
20 (protein, Synthetic Polypeptide sequence of Variant No. 20 of mature Human GLA) LDNGLARTPTMGWLHWERFMCNLDCQEEPDSCISEKLFMEMAELMVSEGWKDAGYEYLCIDDCWMAPQRDSEGRLQADPQRFPHGIRQLANYVHSKGLKLGIYADVGNKTCAGFPGSFGYYDIDAQTFADWGVDLLKFDGCYCDSLENLADGYKHMSLALNRTGRSIVYSCEWPLYMWPFQKPNYTEIRQYCNHWRNFADIDDSWKSVKSILDWTSFNQERIVDVAGPGGWNDPDMLVIGNFGLSWDQQVTQMALWAIMAAPLFMSNDLRHISPQAKALLQDKDVIAINQDPLGKQGYRLRQGDNFEVWERPLSGLAWAVAMINRQEIGGPRSYTIAVASLGKGVACNPACFITQLLPVKRKLGFYEWTSRLKSHVNPTGTVLLQLENTMQMSLKDLLL | + (+ = 0.5 to 1.5 relative activity over WT GLA (SEQ ID NO: 5)) | +++ (+++ = >2.5 relative activity over WT GLA (SEQ ID NO: 5)) | ++ (++ = >1.5 to 2.5 relative activity over WT GLA (SEQ ID NO: 5))
17 (protein, Synthetic Polypeptide sequence of Variant No. 17 of mature Human GLA) LDNGLARTPTMGWLHWERFMCNLDCQEEPDSCISEKLFMEMAELMVSGGWKDAGYEYLCIDDCWMAPQRDSEGRLQADPQRFPHGIRQLANYVHSKGLKLGIYADVGNKTCAGFPGSFGYYDIDAQTFADWGVDLLKFDGCYCDSLENLADGYKHMSLALNRTGRSIVYSCEWPLYMWPFQKPNYTEIRQYCNHWRNFADIDDSWKSIKSILDWTSFNQERIVDVAGPGGWNDPDMLVIGNFGLSWNQQVTQMALWAIMAAPLFMSNDLRHISPQAKALLQDKDVIAINQDPLGKQGYQLRQGDNFEVWERPLSGLAWAVAMINRQEIGGPRSYTIAVASLGKGVACNPACFITQLLPVKRKLGFYEWTSRLKSHINPTGTVLLQLENTMQMSLKDLLL | + (+ = 0.5 to 1.5 relative activity over WT GLA (SEQ ID NO: 5)) | + (+ = 0.5 to 1.5 relative activity over WT GLA (SEQ ID NO: 5)) | + (+ = 0.5 to 1.5 relative activity over WT GLA (SEQ ID NO: 5))
19 (protein, Synthetic Polypeptide sequence of Variant No. 19 of mature Human GLA) LDNGLARTPTMGWLHWERFMCNLDCQEEPDSCISEKLFMEMAELMVSEGWKDAGYEYLCIDDCWMAPQRDSEGRLQADPQRFPHGIRQLANYVHSKGLKLGIYADVGNKTCAGFPGSFGYYDIDAQTFADWGVDLLKFDGCYCDSLENLADGYKHMSLALNRTGRSIVYSCEWPLYMWPFQKPNYTEIRQYCNHWRNFADIDDSWKSVKSILDWTSFNQERIVDVAGPGGWNDPDMLVIGNFGLSWDQQVTQMALWAIMAAPLFMSNDLRHISPQAKALLQDKDVIAINQDPLGKQGYRLRKGDNFEVWERPLSGLAWAVAMINRQEIGGPRSYTIAVASLGKGVACNPACFITQLLPVKRKLGFYEWTSRLKSHVNPTGTVLLQLENTMQMSLKDLLL | + (+ = 0.5 to 1.5 relative activity over WT GLA (SEQ ID NO: 5)) | ++ (++ = >1.5 to 2.5 relative activity over WT GLA (SEQ ID NO: 5)) | + (+ = 0.5 to 1.5 relative activity over WT GLA (SEQ ID NO: 5))
18 (protein, Synthetic Polypeptide sequence of Variant No. 18 of mature Human GLA) LDNGLARTPTMGWLHWERFMCNLDCQEEPDSCISEKLFMEMAELMVSEGWKDAGYEYLCIDDCWMAPQRDSEGRLQADPQRFPHGIRQLANYVHSKGLKLGIYADVGNKTCAGFPGSFGYYDIDAQTFADWGVDLLKFDGCYCDSLENLADGYKHMSLALNRTGRSIVYSCEWPLYMWPFQKPNYTEIRQYCNHWRNFADIDDSWKSIKSILDWTSSNQERIVDVAGPGGWNDPDMLVIGNFGLSWNQQVTQMALWAIMAAPLFMSNDLRHISPQAKALLQDKDVIAINQDPLGKQGYQLRQGDNFEVWERPLSGLAWAVAMINRQEIGGPRSYTIAVASLGKGVACNPACFITQLLPVKRKLGFYEWTSRLRSHINPTGTVLLQLENTMQMSLKDLLL | + (+ = 0.5 to 1.5 relative activity over WT GLA (SEQ ID NO: 5)) | + (+ = 0.5 to 1.5 relative activity over WT GLA (SEQ ID NO: 5)) | ++ (++ = >1.5 to 2.5 relative activity over WT GLA (SEQ ID NO: 5))
15 (protein, Synthetic Polypeptide sequence of Variant No. 15 of mature Human GLA) LDNGLARTPTMGWLHWERFMCNLDCQEEPDSCISEKLFMEMAELMVSDGWKDAGYEYLCIDDCWMAPQRDSEGRLQADPQRFPHGIRQLANYVHSKGLKLGIYADVGNKTCAGFPGSFGYYDIDAQTFADWGVDLLKFDGCYCDSLENLADGYKHMSLALNRTGRSIVYSCEWPLYMWPFQKPNYTEIRQYCNHWRNFADIDDSWKSVKSILDWTSFNQERIVDVAGPGGWNDPDMLVIGNFGLSWNQQVTQMALWAIMAAPLFMSNDLRHISPQAKALLQDKDVIAINQDPLGKQGYRLRKGDNFEVWERPLSGLAWAVAMINRQEIGGPRSYTIAVASLGKGVACNPACFITQLLPVKRKLGFYEWTSRLKSHINPTGTVLLQLENTMQMSLKDLL | + (+ = 0.5 to 1.5 relative activity over WT GLA (SEQ ID NO: 5)) | + (+ = 0.5 to 1.5 relative activity over WT GLA (SEQ ID NO: 5)) | + (+ = 0.5 to 1.5 relative activity over WT GLA (SEQ ID NO: 5))
